From patent US20110243928A1 (published 2011)

T1: E. coli-expressed recombinant cynomolgus IL-13 (cynomolgus, UniProt Q5I6E4 21-132 (Macaca thibetana entry))
T1 construct: also called cyno IL13 (CA); cIL-13
T1 chain: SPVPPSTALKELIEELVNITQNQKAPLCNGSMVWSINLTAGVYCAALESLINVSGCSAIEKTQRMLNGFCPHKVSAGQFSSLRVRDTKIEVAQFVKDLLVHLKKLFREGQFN

T2: E. coli-expressed recombinant human IL-4 (human, UniProt P05112 25-153)
T2 sequence (looked up): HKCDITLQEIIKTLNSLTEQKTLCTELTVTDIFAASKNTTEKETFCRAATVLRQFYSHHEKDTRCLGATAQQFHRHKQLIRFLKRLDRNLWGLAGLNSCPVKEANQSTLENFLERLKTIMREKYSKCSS


Assays:
[1] = biological target: T1, E. coli-expressed recombinant …; assay: BIAcore analysis 4, antibody captured on Protein A, IL-13 in solution
Description: Completed for both human and cynomolgus IL-13 (E. coli-expressed protein). The quoted KD values are the average from 5 different IL-13 concentration curves (done in triplicate).
The kinetics analysis was performed on a Biacore 3000 machine, using an antibody capture method. Briefly, for the chimeric 6A1 and humanised antibody constructs Protein A capture was used, whilst for the parental murine 6A1 antibody, capture was by a anti-mouse Fc antibody supplied by Biacore. Briefly, the method is as follows, the capture ligand was immobilised to a CM5 Biosensor chip by primary amine coupling in accordance with Biacore standard protocols and using the reagents supplied in Biacores' primary amine coupling kit. The method involves activation CM5 sensor surface by passing a solution of 50 mM N-hydroxy-succinimide (NHS) and 200 mM N-ethyl-N′-dimethylaminopropyl […] (EDC) over the surface. Then, the capture ligand (dissolved in acetate buffer pH5 or pH4.5) was coupled to the activated sensor surface after which any still activated esters were blocked by an injection of 1M ethanolamine hydrochloride, pH8.5.
The candidate antibody was then passed over the Protein A or anti-mouse Fc antibody surface, depending on whether it was human or mouse in origin and captured. Once a stable binding signal was seen IL13 was passed over the captured antibody surface at various defined concentrations. The subsequent binding curves were analysed with Biacore analysis software BIAeval v4.1 to determine kinetics. The experiments were carried out using Biacore HBS-EP buffer.

[2] = biological target: T2, E. coli-expressed recombinant human IL-4; assay: binding ELISA
[3] = biological target: E. coli-expressed recombinant human GM-CSF (human, UniProt P04141 18-144); assay: binding ELISA
[4] = biological target: T3, E. coli-expressed recombinant human IL-13 (human, UniProt P35225 35-146); assay: BIAcore, summary of the analyses
T3 construct: Untagged E. coli-expressed human IL-13; also called hIL-13; human IL13 (CA)

[5] = biological target: mammalian-expressed (CHO cell) human IL-13 (human, UniProt P35225 35-146, limits assumed); assay: cell-based or functional assay
[6] = biological target: E. coli-expressed recombinant Q130 human IL-13 (human, UniProt P35225 35-146, limits assumed); assay: cell-based or functional assay
[7] = biological target: T1, E. coli-expressed recombinant …; assay: cell-based or functional assay
[8] = biological target: T3, E. coli-expressed recombinant human …; assay: cell-based or functional assay
[9] = biological target: T2, E. coli-expressed recombinant human IL-4; assay: human IL-4 binding sandwich ELISA

T3 sequence (P35225 other isoform, or with tags, fused parts or gaps): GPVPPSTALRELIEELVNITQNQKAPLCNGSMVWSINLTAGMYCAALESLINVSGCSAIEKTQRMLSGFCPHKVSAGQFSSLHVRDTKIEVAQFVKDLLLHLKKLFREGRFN
Sequence of E. coli-expressed recombinant Q130 human IL-13 (P35225 35-146 limits assumed): as the sequence (P35225 other isoform, or with tags, fused parts or gaps) above, with R110Q counted along it
Sequence of E. coli-expressed recombinant human GM-CSF (P04141 18-144 limits assumed): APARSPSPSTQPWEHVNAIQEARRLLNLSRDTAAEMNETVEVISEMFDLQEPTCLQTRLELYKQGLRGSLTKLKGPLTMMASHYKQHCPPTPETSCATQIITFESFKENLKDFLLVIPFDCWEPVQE
Sequence of mammalian-expressed (CHO cell) human IL-13 (P35225 other isoform, or with tags, fused parts or gaps limits assumed): as the sequence (P35225 other isoform, or with tags, fused parts or gaps) above

Kd [1] [nM] | koff [1] [s⁻¹] | kon [1] [M⁻¹ s⁻¹] | binding result [2] | binding result [3] | Kd [4] [nM] | koff [4] [s⁻¹] | kon [4] [M⁻¹ s⁻¹] | ND50, TF-1 cell proliferation bioassay [5] [µg/mL] | ND50, TF-1 cell proliferation bioassay [6] [µg/mL] | ND50, TF-1 cell proliferation bioassay [7] [µg/mL] | ND50, TF-1 cell proliferation bioassay [8] [µg/mL] | binding result [9] | Binder
0.08 | 5.86e-05 | 730000 | no binding (tested: 30 µg/ml) | no binding (tested: 30 µg/ml) | ~0.168 | 8.22e-05 | ~600000 |  |  |  |  |  | L1+A1 (antibody, human IgG1, kappa, V domains shown, Humanised 6A1, VH construct A1 and VL construct L1, human gamma1 wild type / kappa constant regions; also called A1L1; humanised anti-IL-13 mAb L1+A1) VH: QVQLVQSGAEVKKPGSSVKVSCKASGFYIKDTYMHWVRQAPGQGLEWMGTIDPANGNTKYVPKFQGRVTITADESTSTAYMELSSLRSEDTAVYYCARSIYDDYHYDDYYAMDYWGQGTLVTVSS VL: DIVMTQSPLSLPVTPGEPASISCRSSQNIVHINGNTYLEWYLQKPGQSPRLLIYKISDRFSGVPDRFSGSGSGTDFTLKISRVEADDVGIYYCFQGSHVPWTFGQGTKLEIKR
 |  |  |  |  |  |  |  | 0.037 | 0.11 | 0.04 | 0.0783 | no binding | monoclonal antibody 6A1 (antibody, IgG1, V domains shown, also called 6A1 parental mAb; parental mouse mAb 6A1) VH: EIQLQQSVAELVRPGASVRLSCTASGFYIKDTYMHWVIQRPEQGLEWIGTIDPANGNTKYVPKFQGKATITADTSSNTAYLRLSSLTSEDTAIYYCARSIYDDYHYDDYYAMDYWGQGTSVTVSS VL: DVLMTQTPLSLPVSLGDQASISCRSSQNIVHINGNTYLEWYLQKPGQSPKLLIYKISDRFSGVPDRFSGSGSGTDFTLKISRVEAEDLGVYYCFQGSHVPWTFGGGTKLEIK
